Measurements: publication PMC3043092

Experiments:
[1] = biological target: Pisum sativum thioredoxin f (Pisum sativum); test: SEC; Superdex 75 HR 16/60, 1 ml/min, 25°C; 100 µl at 24 µM loaded; 50 mM buffer with 150 mM NaCl, pH >= 7.0; no reducing agent
[2] = biological target: Pisum sativum thioredoxin h1 (Pisum sativum); test: as above

Row | stoichiometry N [1] | stoichiometry N [2] | Substance
1 | 2 |  | Pisum sativum thioredoxin f (natural protein)
2 |  | 2 | Pisum sativum thioredoxin h1 (natural protein)
